Substrate: CC(=O)C(=O)O
Assay: acetolactate to acetoin, creatine/naphthol colorimetric A525, Michaelis-Menten
Type: biochemical, Oryza sativa
Details: pH 7.5 phosphate, 10 mM MgCl2, 20 uM FAD, 1 mM thiamine pyrophosphate, 37 °C, no herbicide
Description: acetolactate to acetoin, creatine/naphthol colorimetric A525, Michaelis-Menten on AHAS-WT (rice acetohydroxyacid synthase)

Row | Protein | Km [mM] | kcat [s⁻¹] | kcat/Km [M⁻¹ s⁻¹]
1 | AHAS-WT (rice acetohydroxyacid synthase) (Oryza sativa Japonica Group) (protein, mature AHAS, N-terminal 59-residue signal (transit) peptide removed; pGEX4T2, E. coli Rosetta; GST tag cut by thrombin; 64 kDa; WT mainly dimer (128 kDa), small tetramer peak (256 kDa); deletion mutant dimer only) TPLRPWGPAEPRKGADILVEALERCGVSDVFAYPGGASMEIHQALTRSPVITNHLFRHEQGEAFAASGYARASGRVGVCVATSGPGATNLVSALADALLDSVPMVAITGQVPRRMIGTDAFQETPIVEVTRSITKHNYLVLDVEDIPRVIQEAFFLASSGRPGPVLVDIPKDIQQQMAVPVWDTSMNLPGYIARLPKPPATELLEQVLRLVGESRRPILYVGGGCSASGDELRWFVELTGIPVTTTLMGLGNFPSDDPLSLRMLGMHGTVYANYAVDKADLLLAFGVRFDDRVTGKIEAFASRAKIVHIDIDPAEIGKNKQPHVSICADVKLALQGLNALLQQSTTKTSSDFSAWHNELDQQKREFPLGYKTFGEEIPPQYAIQVLDELTKGEAIIATGVGQHQMWAAQYYTYKRPRQWLSSAGLGAMGFGLPAAAGASVANPGVTVVDIDGDGSFLMNIQELALIRIENLPVKVMVLNNQHLGMVVQWEDRFYKANRAHTYLGNPECESEIYPDFVTIAKGFNIPAVRVTKKSEVRAAIKKMLETPGPYLLDIIVPHQEHVLPMIPSGGAFKDMILDGDGRTVY | 9.2 ± 0.4 | 6.7 ± 0.3 | 710 ± 30
2 | AHAS-WT (rice acetohydroxyacid synthase) (Oryza sativa Japonica Group; DEL548-548) (protein, mature AHAS, N-terminal 59-residue signal (transit) peptide removed; pGEX4T2, E. coli Rosetta; GST tag cut by thrombin; 64 kDa; WT mainly dimer (128 kDa), small tetramer peak (256 kDa); deletion mutant dimer only) TPLRPWGPAEPRKGADILVEALERCGVSDVFAYPGGASMEIHQALTRSPVITNHLFRHEQGEAFAASGYARASGRVGVCVATSGPGATNLVSALADALLDSVPMVAITGQVPRRMIGTDAFQETPIVEVTRSITKHNYLVLDVEDIPRVIQEAFFLASSGRPGPVLVDIPKDIQQQMAVPVWDTSMNLPGYIARLPKPPATELLEQVLRLVGESRRPILYVGGGCSASGDELRWFVELTGIPVTTTLMGLGNFPSDDPLSLRMLGMHGTVYANYAVDKADLLLAFGVRFDDRVTGKIEAFASRAKIVHIDIDPAEIGKNKQPHVSICADVKLALQGLNALLQQSTTKTSSDFSAWHNELDQQKREFPLGYKTFGEEIPPQYAIQVLDELTKGEAIIATGVGQHQMWAAQYYTYKRPRQWLSSAGLGAMGFGLPAAAGASVANPGVTVVDIDGDGSFLMNIQELALIRIENLPVKVMVLNNQHLGMVVQEDRFYKANRAHTYLGNPECESEIYPDFVTIAKGFNIPAVRVTKKSEVRAAIKKMLETPGPYLLDIIVPHQEHVLPMIPSGGAFKDMILDGDGRTVY | 9.4 ± 0.4 | 6.6 ± 0.5 | 700 ± 50
